Consider two molecules from publication PMC2063547 (The Journal of Cell Biology, 2006).

The target of assay [1] is full-length human αIIb cytoplasmic tail peptide (human). Kind of assay: ELISA. A general note: ELISA stands for enzyme-linked immunosorbent assay.
The target in assay [2] is T1, calcium and integrin binding protein 1 (CIB1), recombinant (human, UniProt Q99828 1-191).
T1 sequence (looked up): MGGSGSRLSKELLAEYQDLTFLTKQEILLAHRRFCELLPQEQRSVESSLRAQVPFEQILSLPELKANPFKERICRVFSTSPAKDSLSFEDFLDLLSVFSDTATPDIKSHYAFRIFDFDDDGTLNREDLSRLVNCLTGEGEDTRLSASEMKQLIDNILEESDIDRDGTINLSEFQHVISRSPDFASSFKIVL
Kind of assay: ELISA.

As for “talin head domain (THD), recombinant (domain or fragment)”, the IC50 (as a rule, the concentration needed to halve the response being measured) in assay [1] is 25 nM. In other words, the double-digit nanomolar range.

B1: full-length human αIIb cytoplasmic tail peptide (peptide)
peptide: LVLAMWKVGFFKRNRPPLEEDDEEGQ
As for B1, the binding result in assay [2] was “binds”.
